Measured values reported in the supplement of paper PMC7125110.
± gives the standard error. Fewer inactive variants are shown than the library holds.

B1: glmS ribozyme (parent)
chain: AUAAAAGCGCCAGAACUACAGAAAUGUAGUUGACGAGGAGGAGGUUUAUCGAAUUUUCGGCGGAUGCCUCCAAA

Legend:
Details in all cases: with glucosamine-6-phosphate
glucosamine-6-phosphate [1] = variants of: B1; assay: self-cleavage kobs at 40 uM GlcN6P; higher = faster cleavage; RNA array
Summary of the method: (§1)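 kcat and KM were obtained from weighted Michaelis–Menten fits across concentrations of kobs values. Those came from one- or two-exponential decay fits to per-tile medians normalised to baseline and to non-cleaving reference variants. The variants were barcoded ribozymes transcribed in situ by E. coli RNA polymerase on sequenced MiSeq chips and tracked through a hybridised Cy3 probe at 37 °C, with 40 μM to 10 mM glucosamine-6-phosphate in HEPES/KCl/Mg(OAc)2 buffer flowed in.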

glucosamine-6-phosphate [2] = variants of: B1; assay: self-cleavage kobs at 640 uM GlcN6P; higher = faster cleavage; RNA array
Summary of the method: as §1

glucosamine-6-phosphate [3] = variants of: B1; assay: self-cleavage kobs at 10000 uM GlcN6P; higher = faster cleavage; RNA array
Summary of the method: as §1

glucosamine-6-phosphate [4] = variants of: B1; assay: self-cleavage kobs at 160 uM GlcN6P; higher = faster cleavage; RNA array
Summary of the method: as §1

glucosamine-6-phosphate [5] = variants of: B1; assay: self-cleavage kobs at 2500 uM GlcN6P; higher = faster cleavage; RNA array
Summary of the method: as §1

| Variant | self-cleavage kobs at 40 uM GlcN6P (glucosamine-6-phosphate [1]) [s⁻¹] | self-cleavage kobs at 640 uM GlcN6P (glucosamine-6-phosphate [2]) [s⁻¹] | self-cleavage kobs at 10000 uM GlcN6P (glucosamine-6-phosphate [3]) [s⁻¹] | self-cleavage kobs at 160 uM GlcN6P (glucosamine-6-phosphate [4]) [s⁻¹] | self-cleavage kobs at 2500 uM GlcN6P (glucosamine-6-phosphate [5]) [s⁻¹] |
| --- | --- | --- | --- | --- | --- |
| A52C A53U G59A A64C | < 1e-05 | < 1e-05 | – | – | – |
| C11G A15C G29U A64U C70U | < 1e-05 | – | < 1e-05 | – | – |
| U45A U69C | 0.000354 ± 5.9e-05 | 0.000518 ± 0.00013 | 0.00144 ± 0.00031 | 0.000781 ± 0.00033 | 0.00166 ± 0.0005 |
| A1C U2A A3U G7A C8G G9C C10G A12C G13A A14G | 6.43e-05 ± 1.4e-05 | – | 0.00344 ± 0.00044 | – | – |
| C11G U46G C58G C67U | 0.000158 ± 4.6e-05 | 0.000483 ± 0.00015 | 0.000304 ± 8.1e-05 | – | – |
| A6G G7A G51C | < 1e-05 | – | < 1e-05 | – | – |
| A6C U49G | < 1e-05 | < 1e-05 | – | – | – |
| A14U G29C G38U C50G | 0.000223 ± 7.2e-05 | – | 7.38e-05 ± 1.8e-05 | – | – |
| G13C G35A A39G A53C U56C G63C | < 1e-05 | < 1e-05 | < 1e-05 | – | < 1e-05 |
| G35U G38C | < 1e-05 | < 1e-05 | < 1e-05 | – | < 1e-05 |
| U31G U45C U49G | < 1e-05 | < 1e-05 | < 1e-05 | – | – |
| G43U G62U | < 1e-05 | – | < 1e-05 | – | < 1e-05 |
| G40A U55C C61A | < 1e-05 | – | – | – | – |
| A12C U30G U54G | 3.64e-05 ± 1.3e-05 | – | 0.00183 ± 0.00039 | – | 0.000897 ± 0.00025 |
| C34U A53G C68G | 7.28e-05 ± 3.2e-05 | – | 0.000655 ± 0.00017 | – | – |
| G38C U49G A52C | < 1e-05 | – | – | – | < 1e-05 |
| C50G A53U G66A C67A | 0.000122 ± 4.6e-05 | – | 0.000135 ± 5.1e-05 | – | – |
| A6C U31G G32A G41U | < 1e-05 | – | – | – | – |
| C16G G35A U56G G63C | < 1e-05 | – | < 1e-05 | – | – |
| U55C C68G | < 1e-05 | – | < 1e-05 | – | – |
| C61A U69A | < 1e-05 | – | < 1e-05 | – | – |
| C61U C68G C70A | < 1e-05 | – | – | – | – |
| U49G G59C | < 1e-05 | – | < 1e-05 | < 1e-05 | – |
| A14U G32C U45A U47G | < 1e-05 | – | 3.36e-05 ± 1.4e-05 | – | – |
| C16A G40C | < 1e-05 | 4.46e-05 ± 1.5e-05 | – | – | 0.000112 ± 1.8e-05 |

| Variant | self-cleavage kobs at 40 uM GlcN6P (glucosamine-6-phosphate [1]) [s⁻¹] | self-cleavage kobs at 640 uM GlcN6P (glucosamine-6-phosphate [2]) [s⁻¹] | self-cleavage kobs at 10000 uM GlcN6P (glucosamine-6-phosphate [3]) [s⁻¹] | self-cleavage kobs at 160 uM GlcN6P (glucosamine-6-phosphate [4]) [s⁻¹] | self-cleavage kobs at 2500 uM GlcN6P (glucosamine-6-phosphate [5]) [s⁻¹] |
| --- | --- | --- | --- | --- | --- |
| C11A C58A A64G | < 1e-05 | – | – | – | – |
| U31A G63U | < 1e-05 | < 1e-05 | < 1e-05 | < 1e-05 | < 1e-05 |
| G13U G40U A48U C67A | < 1e-05 | – | < 1e-05 | – | – |
| A6G G44C | < 1e-05 | < 1e-05 | < 1e-05 | < 1e-05 | < 1e-05 |
| A36U A48U G51U U65G | < 1e-05 | – | – | – | – |
| C10A G13C | < 1e-05 | – | < 1e-05 | < 1e-05 | < 1e-05 |
| C34U U49A C58A U69A | 0.000146 ± 5e-05 | 0.000567 ± 0.00014 | 4.63e-05 ± 2e-05 | – | – |
| A12C U31C A39C U57G C67A | < 1e-05 | – | < 1e-05 | – | – |
| G7A A15G C61U C71U | < 1e-05 | – | – | < 1e-05 | < 1e-05 |
| C11G U54A | < 1e-05 | – | – | – | – |
| G9U G44C A64C | < 1e-05 | – | < 1e-05 | – | – |
| A6G G41U U57G G59C C71U | < 1e-05 | < 1e-05 | < 1e-05 | < 1e-05 | < 1e-05 |
| C16A G44A | < 1e-05 | – | – | < 1e-05 | – |
| U46G C50G | 4.21e-05 ± 9.2e-06 | 4.09e-05 ± 1.3e-05 | 2.21e-05 ± 7.3e-06 | 7.37e-05 ± 1.5e-05 | – |
| A42C U65G C70G C71G | < 1e-05 | – | – | – | – |
| U57C C61U | < 1e-05 | < 1e-05 | < 1e-05 | < 1e-05 | < 1e-05 |
| A14C C34G G40U | < 1e-05 | – | – | – | < 1e-05 |
| G35C A48G | < 1e-05 | – | – | < 1e-05 | < 1e-05 |
| G13U C50G C70G | 7.6e-05 ± 2.2e-05 | 8.28e-05 ± 1.7e-05 | 6.1e-05 ± 1.2e-05 | 0.000214 ± 5.6e-05 | 0.000166 ± 3.6e-05 |
| A14C A15C G62U G63C | < 1e-05 | – | – | – | – |
| A53G G62A C67U | < 1e-05 | – | – | – | – |
| A36C G43A U55A C71U | < 1e-05 | < 1e-05 | < 1e-05 | – | < 1e-05 |
| C11A G29U C67G C68G | 3.88e-05 ± 1.7e-05 | – | – | – | – |
| G51C A53U U57C G59U | < 1e-05 | – | – | – | – |
| A33G U54G U65G | < 1e-05 | – | < 1e-05 | – | – |
